Experimental data published in article PMC9365700, “Architecture and self-assembly of the jumbo bacteriophage nuclear shell” (Nature, 2022).
Values joined by “and” are separate entries in the source; they are usually repeats but may differ in a detail not shown here. Equal values may be shown once.

B1: Goslar chimallin (gp189), full length, recombinant (natural protein, bacteriophage Goslar, UniProt A0A482GDX1 1-631, looked up)
chain: MGLDVRNNGNDNVEIRAAETRTAQRADEALETAADFAGQPKVTHTMRTINRTLSRRISRNTGSEQVLNLRRLMEKYLEDTRFKDDFIFVAVDPNQYSVPYPTLVVMSGAKVGDHNHFFGYVLPLVAGLAPLPRREEQGPHGNILVPRTWVDNLNGTFINEVMAAMYAAIGGKSNGTARIAGLAVVTNEITAESAHLATTLLSAADNAIQTAIEIRLGDKLGLPQFNLGMMASDQPISSVQYNTSGMQDSDIVGNPVRSDITVTISNRIRQAMSDYDSQQRLVATTGYIDLTYSPQNPTFNQGPVLVNGYPVPPTVQYQPRYVMTSAYPLELDAFTPNTFVLGLIGTIATLNSGMAWAQSLISNAARGIGPHNPGALAMVLDPEVTAPLDLSTQTNEQIYKFLQQVLYPSLLISIDVPEEGEYSWLLRMIPAAEKIYTGKVEGEVREISEGYKALYRAFDDVTLGCFSKKYQYGLPLVYATGNRIPLGHYNHQDGHRHDIRDMDDLYMMNITNPDTVEAWEDSFDRTDMTMSQRVVARHEIIDRVLSGSWEQTGWAMRYDFDPLALQALIEAAADAGFTIRPENIQHLAGTAVRGNMAARARGLGNISGNIYARSDRPNVGVNNMGGAFNLF
notes: Chimallin (gp189) of E. coli jumbo bacteriophage Goslar, 631 amino acids, NCBI YP_009820873.1; Cloned in UC Berkeley Macrolab vector 2-BT (Addgene #29666) with a TEV-cleavable His6 tag; tag removed before SEC; not shown: His6, N-terminal, cleaved
B2: 201phi2-1 chimallin (gp105), full length, recombinant (natural protein, bacteriophage 201phi2-1, UniProt B3FIW8 1-631, looked up)
chain: MIRDTATNTTQTQAAPQQAPAQQFTQAPQEKPMQSTQSQPTPSYAGTGGINSQFTRSGNVQGGDARASEALTVFTRLKEQAVAQQDLADDFSILRFDRDQHQVGWSSLVIAKQISLNGQPVIAVRPLILPNNSIELPKRKTNIVNGMQTDVIESDIDVGTVFSAQYFNRLSTYVQNTLGKPGAKVVLAGPFPIPADLVLKDSELQLRNLLIKSVNACDDILALHSGERPFTIAGLKGQQGETLAAKVDIRTQPLHDTVGNPIRADIVVTTQRVRRNGQQENEFYETDVKLNQVAMFTNLERTPQAQAQTLFPNQQQVATPAPWVASVVITDVRNADGIQANTPEMYWFALSNAFRSTHGHAWARPFLPMTGVAKDMKDIGALGWMSALRNRIDTKAANFDDAQFGQLMLSQVQPNPVFQIDLNRMGETAQMDSLQLDAAGGPNAQKAAATIIRQINNLGGGGFERFFDHTTQPILERTGQVIDLGNWFDGDEKRDRRDLDNLAALNAAEGNENEFWGFYGAQLNPNLHPDLRNRQSRNYDRQYLGSTVTYTGKAERCTYNAKFIEALDRYLAEAGLQITMDNTSVLNSGQRFMGNSVIGNNMVSGQAQVHSAYAGTQGFNTQYQTGPSSFY
notes: Cloned in UC Berkeley Macrolab vector 2-BT (Addgene #29666) with a TEV-cleavable His6 tag; tag removed before SEC; also called ChmA; FL; not shown: His6, N-terminal, cleaved

Biological target: the molecule itself
Assay: cryo-EM structure; single-particle analysis of the defined assemblies from SEC with localized reconstruction (O, C4, C1); 201phi2-1 about 4 µM monomer, Goslar about 33 µM monomer

| Protein | stoichiometry N |
| --- | --- |
| B1 | 24 protomers |
| B2 | 24 protomers and 40 protomers |
